Measured values from paper PMC5500003.

Key:
[1] = test system: tau 4R2N (Homo sapiens), P10636-8; experiment: EMSA; conditions: Hill coefficient 2.8; 26 nM tRNA, 0.5 mM MgCl2, 0.5 mM EDTA, 37 C; native tRNA modifications likely, not described; EMSA: 100 mM sodium acetate pH 7.0, 0.5 mM EDTA, 0.5 mM MgCl2, 0.01% IGEPAL CA-630, RNase inhibitor, 37 C 10 min, TBE 8% gel; ITC: 20 mM ammonium acetate pH 7 …
[2] = test system: tau 4R2N (Homo sapiens), P10636-8; experiment: ITC; conditions: n = 0.52 tRNA per tau; 20 mM ammonium acetate pH 7; EMSA: 100 mM sodium acetate pH 7.0, 0.5 mM EDTA, 0.5 mM MgCl2, 0.01% IGEPAL CA-630, RNase inhibitor, 37 C 10 min, TBE 8% gel; ITC: 20 mM ammonium acetate pH 7 …
tau K18 (Homo sapiens) = experiment: ITC; conditions: n = 0.49 tRNA per tau; 20 mM ammonium acetate pH 7; EMSA: 100 mM sodium acetate pH 7.0, 0.5 mM EDTA, 0.5 mM MgCl2, 0.01% IGEPAL CA-630, RNase inhibitor, 37 C 10 min, TBE 8% gel; ITC: 20 mM ammonium acetate pH 7 …

tau 4R2N (Homo sapiens), P10636-8, sequence (P10636 other isoform, or with tags, fused parts or gaps): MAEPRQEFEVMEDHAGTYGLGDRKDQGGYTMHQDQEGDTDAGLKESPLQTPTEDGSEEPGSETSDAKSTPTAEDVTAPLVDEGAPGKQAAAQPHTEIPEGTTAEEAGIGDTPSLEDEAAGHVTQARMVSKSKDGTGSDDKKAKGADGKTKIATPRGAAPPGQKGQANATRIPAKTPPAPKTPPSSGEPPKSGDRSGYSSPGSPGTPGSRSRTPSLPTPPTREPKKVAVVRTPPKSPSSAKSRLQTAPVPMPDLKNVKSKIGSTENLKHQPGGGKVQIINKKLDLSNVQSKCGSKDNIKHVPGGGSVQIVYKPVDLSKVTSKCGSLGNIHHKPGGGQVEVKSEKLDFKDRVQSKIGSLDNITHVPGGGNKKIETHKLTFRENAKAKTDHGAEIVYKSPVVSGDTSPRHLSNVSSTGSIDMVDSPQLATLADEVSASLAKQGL

Substance | Kd [1] | Kd [2] | Kd (tau K18 (Homo sapiens))
tRNALys, unacetylated | 0.46 µM |  | 
yeast tRNA (bulk) |  | 0.735 µM | 0.372 µM
